Test results reported in patent US20250320312A1 (OXITOPE PHARMA B V, published 2025).
Numbering of substitutions follows the chain as printed.

T1: Peptide 8: Biotin-AEAAAKEAAAKEAAAKEAAAKAAA-Tyr-acid (N-terminal biotin; C-terminal acid)
T1 construct: Control peptide without PC
T1 peptide: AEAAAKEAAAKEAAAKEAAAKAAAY

T2: Peptide 4: Biotin-AGGGGSGGGGSGGGGSAAA-Tyr-acid (N-terminal biotin; C-terminal acid)
T2 construct: Control peptide without PC
T2 peptide: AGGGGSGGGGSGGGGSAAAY

B1: PcOxP_DB03_A07 (scFv, V domains shown)
VH: EVQLLESGGGLVQPGGSLRLSCAASGFHFSDFYMEWVRQAPGKGLEWVAASRNKANDYTTEYADSVKGRFTISRDNSKNTLYLQMNSLRAEDTAVYYCARDYYGSSYWYFDVWGQGTLVTVSS
VL: DIVMTQSPDSLAVSLGERATINCTASENLYSSKHKVHYLAWYQQKPGQPPKLLIYGASNRYSGVPDRFSGSGSGTDFTLTISSLQAEDVAVYYCAQFYSYPLTFGGGTKVEIK
notes: scFv in periplasmic extract
B2: PcOxP_DB03_A10 (scFv, V domains shown)
VH: B1 VH with F27W, H28T
VL: B1 VL with N28S, N59Q, S62I, S99L
notes: scFv in periplasmic extract
B3: PcOxP_DB03_A12 (scFv, V domains shown)
VH: B1 VH with H28T, F32G, E61A
VL: B1 VL with N28S, S62I, A95G
notes: scFv in periplasmic extract
B4: PcOxP_DB03_B01 (scFv, V domains shown)
VH: B1 VH with H28T, D31S, F32Y, K54T
VL: B1 VL with N28S, Y61E, S62I
notes: scFv in periplasmic extract
B5: PcOxP_DB03_B03 (scFv, V domains shown)
VH: B1 VH with H28T, F32G
VL: B1 VL with N28S, S62I, S99V
notes: scFv in periplasmic extract
B6: PcOxP_DB03_B06 (scFv, V domains shown)
VH: B1 VH with F27I, H28T, A55Y
VL: B1 VL with N28S, S62T
notes: scFv in periplasmic extract
B7: PcOxP_DB03_B07 (scFv, V domains shown)
VH: B1 VH with H28G, G104S
VL: B1 VL with N28S, S62I
notes: scFv in periplasmic extract
B8: PcOxP_DB03_B08 (scFv, V domains shown)
VH: B1 VH with H28T, F32Y
VL: B1 VL with N28S, S62I, Q96N
notes: scFv in periplasmic extract
B9: PcOxP_DB03_B09 (scFv, V domains shown)
VH: B1 VH with H28T, D31S, F32Y
VL: B1 VL with N28S, S58A, S62I
notes: scFv in periplasmic extract
B10: PcOxP_DB03_B10 (scFv, V domains shown)
VH: B1 VH with H28T, F32Y, T59N
VL: B1 VL with N28S, S62I
notes: scFv in periplasmic extract
B11: PcOxP_DB03_B11 (scFv, V domains shown)
VH: B1 VH with H28T, M34V, D57T
VL: B1 VL with N28S, S58Q, S62I, A95G
notes: scFv in periplasmic extract
B12: PcOxP_DB03_B12 (scFv, V domains shown)
VH: B1 VH with H28Q, N53W
VL: B1 VL with N28S, S62I
notes: scFv in periplasmic extract
B13: PcOxP_DB03_C01 (scFv, V domains shown)
VH: B1 VH with H28T, Y62V, Y107N
VL: B1 VL with N28S, H34I, S58H, S62I
notes: scFv in periplasmic extract
B14: PcOxP_DB03_C04 (scFv, V domains shown)
VH: B1 VH with H28T, F110N
VL: B1 VL with N28S, S62I, S99T
notes: scFv in periplasmic extract
B15: PcOxP_DB03_C08 (scFv, V domains shown)
VH: B1 VH with F27S, H28T, Y58F
VL: B1 VL with N28S, S99H
notes: scFv in periplasmic extract

Molecular target: Peptide 1: Biotin-…-[Tyr(PC)]-acid
Assay: scFv ELISA

| Binder | OD450 [OD450] |
| --- | --- |
| B1 | 0.94 |
| B2 | 0.6 |
| B3 | 2.28 |
| B4 | 0.21 |
| B5 | 1.12 |
| B6 | 0.68 |
| B7 | 0.66 |
| B8 | 2.63 |
| B9 | 1.09 |
| B10 | 0.41 |
| B11 | 0.5 |
| B12 | 1.21 |
| B13 | 0.84 |
| B14 | 2.11 |
| B15 | 0.98 |

Molecular target: BSA (UniProt P02769)
Sequence (P02769 25-607 limits assumed): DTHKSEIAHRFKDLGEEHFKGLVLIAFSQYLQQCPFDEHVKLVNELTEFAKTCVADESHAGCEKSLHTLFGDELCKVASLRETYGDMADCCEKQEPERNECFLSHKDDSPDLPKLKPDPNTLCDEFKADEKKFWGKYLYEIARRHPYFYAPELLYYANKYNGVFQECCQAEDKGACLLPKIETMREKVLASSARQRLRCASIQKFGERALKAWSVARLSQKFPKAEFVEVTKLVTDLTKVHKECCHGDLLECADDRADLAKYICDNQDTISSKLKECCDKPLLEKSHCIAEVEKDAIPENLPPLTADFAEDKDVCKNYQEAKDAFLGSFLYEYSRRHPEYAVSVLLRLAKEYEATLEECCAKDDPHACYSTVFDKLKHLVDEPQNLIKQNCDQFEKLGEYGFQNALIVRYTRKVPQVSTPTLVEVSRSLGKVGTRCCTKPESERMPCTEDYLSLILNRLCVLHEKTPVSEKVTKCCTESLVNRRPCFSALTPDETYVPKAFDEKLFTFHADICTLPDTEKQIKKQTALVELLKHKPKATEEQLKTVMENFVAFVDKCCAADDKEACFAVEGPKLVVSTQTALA
Assay: scFv ELISA

| Binder | OD450 [OD450] |
| --- | --- |
| B1 | 0.06 |
| B2 | 0.06 |
| B3 | 0.07 |
| B4 | 0.06 |
| B5 | 0.07 |
| B6 | 0.06 |
| B7 | 0.12 |
| B8 | 0.07 |
| B9 | 0.08 |
| B10 | 0.08 |
| B11 | 0.07 |
| B12 | 0.06 |
| B13 | 0.08 |
| B14 | 0.07 |
| B15 | 0.06 |

Molecular target: Peptide 5: Biotin-…-[Tyr(PC)]-acid
Assay: scFv ELISA

| Binder | OD450 [OD450] |
| --- | --- |
| B1 | 1.01 |
| B2 | 0.54 |
| B3 | 1.67 |
| B4 | 0.64 |
| B5 | 1.1 |
| B6 | 1.01 |
| B7 | 0.81 |
| B8 | 1.95 |
| B9 | 0.89 |
| B10 | 0.71 |
| B11 | 0.72 |
| B12 | 0.85 |
| B13 | 1.47 |
| B14 | 1.72 |
| B15 | 0.9 |

Molecular target: T1, Peptide 8: …
Assay: scFv ELISA
How it was run: (§1)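 Bound scFv was read as OD450 after HRP–anti-V5 detection, TMB development and HCl stop. PPE with BSA was incubated 1 h at RT on BSA-blocked wells coated overnight at 4° C. with peptide, or on streptavidin wells loaded 1 h with biotinylated PC-peptides at 1 μg/mL.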

| Binder | OD450 [OD450] |
| --- | --- |
| B1 | 0.04 |
| B2 | 0.04 |
| B3 | 0.05 |
| B4 | 0.04 |
| B5 | 0.04 |
| B6 | 0.05 |
| B7 | 0.05 |
| B8 | 0.04 |
| B9 | 0.05 |
| B10 | 0.05 |
| B11 | 0.05 |
| B12 | 0.05 |
| B13 | 0.05 |
| B14 | 0.04 |
| B15 | 0.05 |

Molecular target: T2, Peptide 4: …
Assay: scFv ELISA
How it was run: as §1

| Binder | OD450 [OD450] |
| --- | --- |
| B1 | 0.04 |
| B2 | 0.04 |
| B3 | 0.06 |
| B4 | 0.04 |
| B5 | 0.04 |
| B6 | 0.04 |
| B7 | 0.06 |
| B8 | 0.05 |
| B9 | 0.05 |
| B10 | 0.05 |
| B11 | 0.05 |
| B12 | 0.05 |
| B13 | 0.05 |
| B14 | 0.04 |
| B15 | 0.05 |
